# In patent US12698507B2, “Methods and compositions for conferring and/or enhancing herbicide tolerance using protoporphyrinogen IX oxidase of various cyanobacteria or variant thereof” (FarmHannong Co., Ltd., priority 2019, dated 2026):
# Tested on: PPO-deficient BT3 E. coli (ΔPPO)
# Assay: PPO-inhibiting herbicide tolerance test of PPO variants in E. coli (growth on herbicide-containing LB agar)
# Format: cell-based
# Settings: CyPPO19 variants in BT3 (ΔPPO) E. coli; LB agar with 0 to 2,000 μM herbicide, 37° C., dark, 16-20 hours
# Procedure, shortened: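 Tolerance was scored against wild-type enzyme: '−' for equal growth, one '+' per 10-fold gain, up to '+++++'. ΔPPO BT3 cells carrying variant plasmids, spotted as a 10-fold dilution series from OD600=0.5, grew 16-20 h at 37° C. in the dark on ampicillin LB agar containing 0 to 2,000 μM herbicide.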
Molecule,"tolerance level relative to wild type, Carfentrazone","tolerance level relative to wild type, Flumioxazin","tolerance level relative to wild type, Fomesafen","tolerance level relative to wild type, Oxyfluorfen","tolerance level relative to wild type, Saflufenacil","tolerance level relative to wild type, Sulfentrazone","tolerance level relative to wild type, Tiafenacil"
"CyPPO19 L327T + F360I: variant of CyPPO19 PPO protein (SEQ ID NO: 1) (protein, Synthetic_PPO of Thermosynechococcus elongatus PKUAC-SCTE542 (comprising GenBank No. CP032152.1)) MSEVDVAIVGGGLSGLSLAWRLQQSAPQYSVVLLEASDRLGGNITTQTAEGFVWELGPNSFAPTPALLQLIAEVGLQSELIRGDRHLPRYIYWRGQLYPLQPTRPLALATSNLLSPWGKVRAALGALGFVPPYLGSGDESVNSFFRRHLGQEVAERLVAPFVSGVYAGDPQQLSAAAAFRRIAQLEKLGGGLIAGALHLRRQQAPKPKPPTSVQMRPGELGSFKEGLAALPRAIAQQLKAPIHLQTPVQEITPDPKGGYLLRSGEQTWRARSVVLATPAYQTAELVAPFQPAIARVLATIPYPTVACVVLAYPAGLGRSVRPGFGVTIPRSQGIRTLGTIWSSCLFPQRTPAGWQVFTSIIGGATDPDLASLSEEAIVQQVQQDLNRLLDLPAAKARLLGMKVWRRAIPQYMVGYPEQWQQVTHALSQTPGLFLCSNYAEGVALGDRVEHGNRTAAAVAAYLSGGQP",+ (‘+’ per each 10-fold resistance),++++ (‘+’ per each 10-fold resistance),+ (‘+’ per each 10-fold resistance),++ (‘+’ per each 10-fold resistance),++ (‘+’ per each 10-fold resistance),+++ (‘+’ per each 10-fold resistance),++++ (‘+’ per each 10-fold resistance)
"CyPPO19 L327T + F360L: variant of CyPPO19 PPO protein (SEQ ID NO: 1) (protein, Synthetic_PPO of Thermosynechococcus elongatus PKUAC-SCTE542 (comprising GenBank No. CP032152.1)) MSEVDVAIVGGGLSGLSLAWRLQQSAPQYSVVLLEASDRLGGNITTQTAEGFVWELGPNSFAPTPALLQLIAEVGLQSELIRGDRHLPRYIYWRGQLYPLQPTRPLALATSNLLSPWGKVRAALGALGFVPPYLGSGDESVNSFFRRHLGQEVAERLVAPFVSGVYAGDPQQLSAAAAFRRIAQLEKLGGGLIAGALHLRRQQAPKPKPPTSVQMRPGELGSFKEGLAALPRAIAQQLKAPIHLQTPVQEITPDPKGGYLLRSGEQTWRARSVVLATPAYQTAELVAPFQPAIARVLATIPYPTVACVVLAYPAGLGRSVRPGFGVTIPRSQGIRTLGTIWSSCLFPQRTPAGWQVFTSLIGGATDPDLASLSEEAIVQQVQQDLNRLLDLPAAKARLLGMKVWRRAIPQYMVGYPEQWQQVTHALSQTPGLFLCSNYAEGVALGDRVEHGNRTAAAVAAYLSGGQP",+ (‘+’ per each 10-fold resistance),++++ (‘+’ per each 10-fold resistance),++ (‘+’ per each 10-fold resistance),++ (‘+’ per each 10-fold resistance),+ (‘+’ per each 10-fold resistance),++ (‘+’ per each 10-fold resistance),++++ (‘+’ per each 10-fold resistance)
"CyPPO19 I408W + F360I: variant of CyPPO19 PPO protein (SEQ ID NO: 1) (protein, Synthetic_PPO of Thermosynechococcus elongatus PKUAC-SCTE542 (comprising GenBank No. CP032152.1)) MSEVDVAIVGGGLSGLSLAWRLQQSAPQYSVVLLEASDRLGGNITTQTAEGFVWELGPNSFAPTPALLQLIAEVGLQSELIRGDRHLPRYIYWRGQLYPLQPTRPLALATSNLLSPWGKVRAALGALGFVPPYLGSGDESVNSFFRRHLGQEVAERLVAPFVSGVYAGDPQQLSAAAAFRRIAQLEKLGGGLIAGALHLRRQQAPKPKPPTSVQMRPGELGSFKEGLAALPRAIAQQLKAPIHLQTPVQEITPDPKGGYLLRSGEQTWRARSVVLATPAYQTAELVAPFQPAIARVLATIPYPTVACVVLAYPAGLGRSVRPGFGVLIPRSQGIRTLGTIWSSCLFPQRTPAGWQVFTSIIGGATDPDLASLSEEAIVQQVQQDLNRLLDLPAAKARLLGMKVWRRAWPQYMVGYPEQWQQVTHALSQTPGLFLCSNYAEGVALGDRVEHGNRTAAAVAAYLSGGQP",+ (‘+’ per each 10-fold resistance),+++ (‘+’ per each 10-fold resistance),+++ (‘+’ per each 10-fold resistance),++ (‘+’ per each 10-fold resistance),+++ (‘+’ per each 10-fold resistance),+++ (‘+’ per each 10-fold resistance),++++ (‘+’ per each 10-fold resistance)
"CyPPO19 L327T + F360T: variant of CyPPO19 PPO protein (SEQ ID NO: 1) (protein, Synthetic_PPO of Thermosynechococcus elongatus PKUAC-SCTE542 (comprising GenBank No. CP032152.1)) MSEVDVAIVGGGLSGLSLAWRLQQSAPQYSVVLLEASDRLGGNITTQTAEGFVWELGPNSFAPTPALLQLIAEVGLQSELIRGDRHLPRYIYWRGQLYPLQPTRPLALATSNLLSPWGKVRAALGALGFVPPYLGSGDESVNSFFRRHLGQEVAERLVAPFVSGVYAGDPQQLSAAAAFRRIAQLEKLGGGLIAGALHLRRQQAPKPKPPTSVQMRPGELGSFKEGLAALPRAIAQQLKAPIHLQTPVQEITPDPKGGYLLRSGEQTWRARSVVLATPAYQTAELVAPFQPAIARVLATIPYPTVACVVLAYPAGLGRSVRPGFGVTIPRSQGIRTLGTIWSSCLFPQRTPAGWQVFTSTIGGATDPDLASLSEEAIVQQVQQDLNRLLDLPAAKARLLGMKVWRRAIPQYMVGYPEQWQQVTHALSQTPGLFLCSNYAEGVALGDRVEHGNRTAAAVAAYLSGGQP",+ (‘+’ per each 10-fold resistance),+ (‘+’ per each 10-fold resistance),+ (‘+’ per each 10-fold resistance),+ (‘+’ per each 10-fold resistance),+ (‘+’ per each 10-fold resistance),+ (‘+’ per each 10-fold resistance),++ (‘+’ per each 10-fold resistance)
"CyPPO19 L327T + F360M: variant of CyPPO19 PPO protein (SEQ ID NO: 1) (protein, Synthetic_PPO of Thermosynechococcus elongatus PKUAC-SCTE542 (comprising GenBank No. CP032152.1)) MSEVDVAIVGGGLSGLSLAWRLQQSAPQYSVVLLEASDRLGGNITTQTAEGFVWELGPNSFAPTPALLQLIAEVGLQSELIRGDRHLPRYIYWRGQLYPLQPTRPLALATSNLLSPWGKVRAALGALGFVPPYLGSGDESVNSFFRRHLGQEVAERLVAPFVSGVYAGDPQQLSAAAAFRRIAQLEKLGGGLIAGALHLRRQQAPKPKPPTSVQMRPGELGSFKEGLAALPRAIAQQLKAPIHLQTPVQEITPDPKGGYLLRSGEQTWRARSVVLATPAYQTAELVAPFQPAIARVLATIPYPTVACVVLAYPAGLGRSVRPGFGVTIPRSQGIRTLGTIWSSCLFPQRTPAGWQVFTSMIGGATDPDLASLSEEAIVQQVQQDLNRLLDLPAAKARLLGMKVWRRAIPQYMVGYPEQWQQVTHALSQTPGLFLCSNYAEGVALGDRVEHGNRTAAAVAAYLSGGQP",+ (‘+’ per each 10-fold resistance),+++ (‘+’ per each 10-fold resistance),+ (‘+’ per each 10-fold resistance),++ (‘+’ per each 10-fold resistance),+ (‘+’ per each 10-fold resistance),+ (‘+’ per each 10-fold resistance),+++ (‘+’ per each 10-fold resistance)
"CyPPO19 L327T + F360V: variant of CyPPO19 PPO protein (SEQ ID NO: 1) (protein, Synthetic_PPO of Thermosynechococcus elongatus PKUAC-SCTE542 (comprising GenBank No. CP032152.1)) MSEVDVAIVGGGLSGLSLAWRLQQSAPQYSVVLLEASDRLGGNITTQTAEGFVWELGPNSFAPTPALLQLIAEVGLQSELIRGDRHLPRYIYWRGQLYPLQPTRPLALATSNLLSPWGKVRAALGALGFVPPYLGSGDESVNSFFRRHLGQEVAERLVAPFVSGVYAGDPQQLSAAAAFRRIAQLEKLGGGLIAGALHLRRQQAPKPKPPTSVQMRPGELGSFKEGLAALPRAIAQQLKAPIHLQTPVQEITPDPKGGYLLRSGEQTWRARSVVLATPAYQTAELVAPFQPAIARVLATIPYPTVACVVLAYPAGLGRSVRPGFGVTIPRSQGIRTLGTIWSSCLFPQRTPAGWQVFTSVIGGATDPDLASLSEEAIVQQVQQDLNRLLDLPAAKARLLGMKVWRRAIPQYMVGYPEQWQQVTHALSQTPGLFLCSNYAEGVALGDRVEHGNRTAAAVAAYLSGGQP",+ (‘+’ per each 10-fold resistance),++++ (‘+’ per each 10-fold resistance),+ (‘+’ per each 10-fold resistance),++ (‘+’ per each 10-fold resistance),++ (‘+’ per each 10-fold resistance),++ (‘+’ per each 10-fold resistance),++++ (‘+’ per each 10-fold resistance)
